Source: patent publication US20220409742A1, “NUCLEIC ACID NANOPARTICLES, PHARMACEUTICAL COMPOSITION COMPRISING SAME, DRUG COMPRISING DOXORUBICIN AND PREPARATION METHOD THEREFOR” (BAI YAO ZHI DA (BEIJING) NANOBIO TECHNOLOGY CO., LTD., priority 2018, published 2022)
Where a chain is given by its changes, count along the chain named. Where “and” joins values, the source holds several entries; their conditions need not be identical. Equal values may be shown once. {Biotin} = biotin attached at the strand end

B1: R-15: extension fragment deformation+core short-sequence RNA nanoparticle, SEQ ID NO:120-122, 3′ biotin on a-strand, 2′F (nucleic acid)
chain 1: GCGGCGAGCGGCGAGGAGCGUUGGGGCCGGAGGCCGG
chain 2: CCGGCCUCCGGCCCCUUCGGGGCCAGCCGCC
chain 3: GGCGGCAGGCCCCCAUAGCCCUCGCCGCUCGCCGC
modifications: chain 1: 3' {Biotin}, sugars by position and backbone not given here; chain 2: chemistry not given here; chain 3: chemistry not given here; three-strand RNA nanoparticle, 2'-F modified
B2: R-18: extension fragment deformation+core short-sequence RNA nanoparticle, SEQ ID NO:129-131, 3′ biotin on a-strand, 2′F (nucleic acid)
chain 1: B1 chain 1 with G16C, G23C
chain 2: B1 chain 2 with C15G, G21C
chain 3: B1 chain 3 with C11G, C20G
modifications: chain 1: 3' {Biotin}, sugars by position and backbone not given here; chain 2: chemistry not given here; chain 3: chemistry not given here; three-strand RNA nanoparticle, 2'-F modified
B3: R-17: extension fragment deformation+core short-sequence RNA nanoparticle, SEQ ID NO:126-128, 3′ biotin on a-strand, 2′F (nucleic acid)
chain 1: B1 chain 1
chain 2: B1 chain 2 with G20C, G21C
chain 3: B1 chain 3 with C11G, C12G
modifications: chain 1: 3' {Biotin}, sugars by position and backbone not given here; chain 2: chemistry not given here; chain 3: chemistry not given here; three-strand RNA nanoparticle, 2'-F modified
B4: R-19: extension fragment deformation+core short-sequence RNA nanoparticle, SEQ ID NO:132-134, 3′ biotin on a-strand, 2′F (nucleic acid)
chain 1: B1 chain 1 with G16C, G23C
chain 2: B1 chain 2 with C15G, G21C, G22C
chain 3: B1 chain 3 with C10G, C11G, C20G
modifications: chain 1: 3' {Biotin}, sugars by position and backbone not given here; chain 2: chemistry not given here; chain 3: chemistry not given here; three-strand RNA nanoparticle, 2'-F modified
B5: R-16: extension fragment deformation+core short-sequence RNA nanoparticle, SEQ ID NO:123-125, 3′ biotin on a-strand, 2′F (nucleic acid)
chain 1: B1 chain 1 with G16C, G23C
chain 2: B1 chain 2 with C15G, G20C, G21C
chain 3: B1 chain 3 with C11G, C12G, C20G
modifications: chain 1: 3' {Biotin}, sugars by position and backbone not given here; chain 2: chemistry not given here; chain 3: chemistry not given here; three-strand RNA nanoparticle, 2'-F modified
B6: D-7: conventional-sequence DNA nanoparticle, SEQ ID NO:117-119, without target head, thio modification (nucleic acid)
chain 1: CGCGCGCCCACGAGCGTTGCGGGCGCCGC
chain 2: GCGGCGCCCGCTTCGGCGGCAGGCGGC
chain 3: GCCGCCAGCCGCCCATAGCCGTGGGCGCGCG
modifications: DNA, backbone and methylation of C not given here; three-strand DNA nanoparticle, phosphorothioate modification
B7: D-6: conventional-sequence DNA nanoparticle, SEQ ID NO:114-116, without target head, thio modification (nucleic acid)
chain 1: CGCGCGCCCAGCAGCGTTCGGGGCGCCGC
chain 2: GCGGCGCCCCGTTCGGCCGGCAGGCGGC
chain 3: GCCGCCAGCCGGCCCATAGCGCTGGGCGCGCG
modifications: DNA, backbone and methylation of C not given here; three-strand DNA nanoparticle, phosphorothioate modification
B8: D-2: conventional-sequence DNA nanoparticle, SEQ ID NO:102-104, EGFRapt target head, thio modification (nucleic acid)
chain 1: CGCGCGCCCAGCAGCGTTCGCGGGCGGCGGCCTTAGTAACGTGCTTTGATGTCGATTCGACAGGAGGC
chain 2: CGCCGCCCGCGTTCGCCGCCAGCCGCC
chain 3: GGCGGCAGGCGGCCATAGCGCTGGGCGCGCG
modifications: DNA, backbone and methylation of C not given here; DNA nanoparticle with EGFR aptamer head, phosphorothioate modification

Experiment: Particle size measurement (DLS hydrodynamic size)
Type: physicochemical
Settings: not given
From the text: 1. Preparing a potential sample (conventional-sequence DNA self-assembly product D-7) and putting into a sample pool, opening a sample pool cover of an instrument, and placing the instrument;
2. opening software, and clicking a menu, so a manual measurement parameter setting dialog box appears;
3. setting a software detection parameter; and then
4. clicking Ok to complete the settings, while a measurement dialog box appears, clicking Start to start, a DLS measurement value result of a hydrodynamic size of the self-assembly product D-7 is as follows:
1. Preparing a potential sample (7 groups of extension fragment deformation+core short-sequence RNA) and putting into a sample pool, opening a sample pool cover of an instrument, and placing the instrument;
4. clicking Ok to complete the settings, while a measurement dialog box appears, clicking Start to start, a DLS measurement value result of a hydrodynamic size of the 7 groups of extension fragment deformation+core short-sequence RNA is as follows:
(1) Preparing a potential sample (7 groups of extension fragment deformation+core short-sequence DNA) and putting into a sample pool, opening a sample pool cover of an instrument, and placing the instrument;
(2) opening software, and clicking a menu, so a manual measurement parameter setting dialog box appears;
(3) setting a software detection parameter; and then
(4) clicking Ok to complete the settings, while a measurement dialog box appears, clicking Start to start, a DLS measurement value result of a hydrodynamic size of the 7 groups of extension fragment deformation+core short-sequence DNA is as follows: […]
For B1, the Mean particle size was 6.808 nm. For B2, the Mean particle size was 7.520 nm. Work on B3 yielded a Mean particle size of 7.592 nm. Molecule B4 has a Mean particle size of 6.936 nm. Molecule B5 has a Mean particle size of 6.978 nm.

Same assay, conditions: detection times 1-3, listed as 1
For B6, the “Particle size Z-Ave, single detection” value was 10.76 nm·days and 13.9 nm·days and 10.36 nm·days.

Same assay, conditions: summary of 3 detections
With B6 the “Particle size Z-Ave, Experiment result” value was 12.33 d.nm(±1.57 d.nm).

Experiment: Doxorubicin loading rate, chemical loading (paraformaldehyde covalent linkage)
Type: physicochemical
Settings: doxorubicin molecules per nucleic acid nanoparticle carrier
Procedure: (1) Accurately weighing the doxorubicin (5.0 mg, 8.6 μmol, 40 eq.) and dissolving in the DEPC treated water (1.8 mL) and the PBS buffer solution (2.1 mL), adding 4% paraformaldehyde aqueous solution (0.4 mL) under cooling of an ice-water bath and uniformly mixing, enabling the mixed solution to be totally uniformly mixed with the RNA nanoparticles (215 nmol), and reacting for 72 hours at 4 DEG C. under a dark condition.
(2) Taking 10 μL of reaction solution and diluting for 10 times, using 50 μM of the doxorubicin aqueous solution and 310 ng/μL of the RNA nanoparticles as controls, and performing HPLC analysis according to equal volume injection. According to a peak area ratio of each component, it may be adjusted that reaction conversion is basically completed.
(3) Extracting the reaction solution by the chloroform (10 mL×3), and then adding 10 times of the anhydrous ethanol in volume, after uniformly mixing, keeping at 4 DEG C. in the dark and enabling a product to be adequately precipitated (4 hours). Centrifuging, transferring supernatant, and washing the solid product again by the ethanol, evaporating a solvent under reduced pressure and lower temperature, to obtain a loading product which is a dark red solid.
(5) Loading rate calculation:
1. preparing a known concentration of doxorubicin-PBS standard solution: 2 μM, 4 μM, 6 μM, 8 μM, and 10 μM, 100 μL each;
2. enabling the doxorubicin-loaded product to be dissolved in 100 μL of the PBS;
3. putting the standard solution and the doxorubicin-loaded product into a PCR plate, heating at 85 DEG C. for 5 min, and then cooling to the room temperature;
4. measuring an absorbance of the doxorubicin at 492 nm by using a microplate reader, drawing a standard curve (as shown in FIG. 11), and calculating the molar concentration of the doxorubicin in the loaded product;
5. measuring an absorbance of RNA at 260 nm by using a spectrophotometer, to obtain the mass concentration of the doxorubicin-loaded product contained in each sample; and
6. according to the doxorubicin molar concentration and the mass concentration of the doxorubicin-loaded product obtained by measuring, calculating a loading rate.
According to the chemical loading method (unless otherwise specified, the method is the same as that of Embodiment 5) of Embodiment 5, the above DNA nanoparticles in Embodiment 1, the RNA nanoparticles formed by the self-assembly of the R-1, R-2, R-3, R-4, R-5, R-6 and R-7 in Embodiment 2, and the DNA nanoparticles formed by the self-assembly of the D-2, D-6 and D-7 in Embodiment 4 are respectively used as doxorubicin loading carriers, doxorubicin loading rates measured are respectively as follows:
According to the chemical loading method (unless otherwise specified, the method is the same as that of Embodiment 5) of Embodiment 5, the RNA nanoparticles formed by the self-assembly of the previous R-15, R-16, R-17, R-18, R-19, R-20 and R-21 in Embodiment 11, and the DNA nanoparticles formed by the self-assembly of the D-8, D-9, D-10, D-11, D-12, D-13 and D-14 in Embodiment 12 are respectively used as doxorubicin loading carriers, doxorubicin loading rates measured are respectively as follows: […]
“R-5: short-sequence RNA nanoparticle, strands SEQ ID NO:67-69, c/u 2′F modification (chain 1 GCAGCGUUCG; chain 2 CGUUCGGCGY; chain 3 CGCCCAUAGCGC; 2'-F C/U, chemistry not fully specified)” gave a doxorubicin loading rate of 12.5. “R-1: short-sequence RNA nanoparticle, strands SEQ ID NO:55-57, c/u 2′F modification (chain 1 GGAGCGUUGG; chain 2 CCUUCGCCGY; chain 3 CGGCCAUAGCCC; 2'-F C/U, chemistry not fully specified)” showed a doxorubicin loading rate of 3.5. With “R-2: short-sequence RNA nanoparticle, strands SEQ ID NO:58-60, c/u 2′F modification (chain 1 GCAGCGUUCG; chain 2 CGUUCGCCGY; chain 3 CGGCCAUAGCGC; 2'-F C/U, chemistry not fully specified)” the doxorubicin loading rate was 2.4. Molecule “R-4: short-sequence RNA nanoparticle, strands SEQ ID NO:64-66, c/u 2′F modification (chain 1 GGAGCGUUGG; chain 2 CCUUCGGGGY; chain 3 CCCCCAUAGCCC; 2'-F C/U, chemistry not fully specified)” has a doxorubicin loading rate of 3.5. Work on “R-3: short-sequence RNA nanoparticle, strands SEQ ID NO:61-63, c/u 2′F modification (chain 1 CGAGCGUUGC; chain 2 GCUUCGCCGY; chain 3 CGGCCAUAGCCG; 2'-F C/U, chemistry not fully specified)” yielded a doxorubicin loading rate of 4.8. In the case of “R-6: short-sequence RNA nanoparticle, strands SEQ ID NO:70-72, c/u 2′F modification (chain 1 GCAGCGUUCG; chain 2 CGUUCGGCCY; chain 3 GGCCCAUAGCGC; 2'-F C/U, chemistry not fully specified)”, the doxorubicin loading rate is reported as 2.8. B6 showed a doxorubicin loading rate of 10. B7 showed a doxorubicin loading rate of 11. B8 gave a doxorubicin loading rate of 14.
